Laboratory results as given in patent publication US20150299277A1 (UNIVERSITY OF TOKYO, published 2015).

T1: Myc- and His-tagged C-terminal domain human PTX3 (animal cell expressed) (human, UniProt P26022 179-381)
T1 construct: also called C-terminal domain of PTX3; C-terminal fragment of PTX3; not shown: Myc and His tags of the pEF4/Myc-His B vector
T1 sequence: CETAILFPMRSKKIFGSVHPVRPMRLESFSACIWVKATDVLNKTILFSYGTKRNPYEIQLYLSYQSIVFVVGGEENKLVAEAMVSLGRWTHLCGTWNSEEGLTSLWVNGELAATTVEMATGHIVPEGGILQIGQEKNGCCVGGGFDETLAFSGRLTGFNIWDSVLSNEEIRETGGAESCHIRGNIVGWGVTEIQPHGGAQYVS


Columns and labels:
[1] = biological target: T2, Myc- and His-tagged full-length human PTX3 (human, UniProt P26022 18-381); assay: dot blot: fragments on nitrocellulose, PTX3 overlay, anti-myc detection (FIG. 12A left)
T2 construct: also called full-length PTX3; Myc-tagged full-length PTX3; not shown: Myc and His tags of the pEF4/Myc-His B vector

[2] = biological target: T1, Myc- and His-tagged C-terminal domain …; assay: as above

| binding result [1] | binding result [2] | Binder |
| --- | --- | --- |
| binds | binds | LVGLFEDTNLCAIHAKRVTI [histone H3 fragment H3-11] |
| binds | – | EIRRYQKSTELLIRKLPFQR [histone H3 fragment H3-6] |
